Assays:
Format in all cases: biochemical
AMPK = assay: Millipore radiometric kinase activity assay, AMPK (r); conditions: rat AMPK
Procedure: (§1) A commercial radiometric assay service (Millipore, Billerica, Mass.) was used to test the specificity and potency of peptides containing a coupled transduction domain and therapeutic domain, hereinafter “complete peptides”). In these assays, if the kinase is not inhibited by an inhibitor peptide, a positively charged substrate is phosphorylated with a radiolabeled phosphate group from an ATP.
In a final reaction volume of 25 AMPK (r) (5-10 mU) is incubated with 32 mM HEPES pH 7.4, 0.65 mM DTT, 0.012% Brij-35, 200 μM AMP, 200 μM […] [SEQ ID NO: 49], 10 mM MgAcetate and [γ-^33P-ATP] (specific activity approx. 500 cpm/pmol, concentration as required). The reaction is initiated by the addition of the MgATP mix. After incubation for 40 minutes at room temperature, the reaction is stopped by the addition of 5 μL of a 3% phosphoric acid solution. 10 μL of the reaction is then spotted onto a P30 filtermat and washed three times for 5 minutes in 75 mM phosphoric acid and once in methanol prior to drying and scintillation counting.
(§2) IC50 values for inhibitor peptides were determined using Millipore's IC50Profiler Express service. The IC50 value was estimated from a 10-point curve of one-half log dilutions. For peptides tested for specificity, the concentration of the peptides that inhibited approximately 95% of MK2 activity was chosen to profile against a battery of kinases related to MK2, cell viability, or human disease from MilliporeKinaseProfiler service. In both assays, compounds were supplied in dimethylsulfoxide (DMSO). Every kinase activity measurement was conducted in duplicate.
(§3) Therapeutic inhibitor peptides were assayed for activity against human kinases related to MK2, cell viability, or human disease. The assays were performed using concentrations of therapeutic inhibitor peptides that yielded 2% to 8% of normal MK2 activity. Error is reported as the standard deviation between 2 samples, and “c” is rat AMPK whereas all other kinases used are human kinases.

BTK = biological target: T1, BTK (Homo sapiens, UniProt Q06187); assay: Millipore radiometric kinase activity assay, BTK (h)
T1 construct: purchased Millipore (assay service)
From the text: A commercial radiometric assay service (Millipore, Billerica, Mass.) was used to test the specificity and potency of peptides containing a coupled transduction domain and therapeutic domain, hereinafter “complete peptides”). In these assays, if the kinase is not inhibited by an inhibitor peptide, a positively charged substrate is phosphorylated with a radiolabeled phosphate group from an ATP. […] The reaction is initiated by the addition of the MgATP mix. […] IC50 values for inhibitor peptides were determined using Millipore's IC50Profiler Express service. The IC50 value was estimated from a 10-point curve of one-half log dilutions. […] In both assays, compounds were supplied in dimethylsulfoxide (DMSO). Every kinase activity measurement was conducted in duplicate. Therapeutic inhibitor peptides were assayed for activity against human kinases related to MK2, cell viability, or human disease. […] Error is reported as the standard deviation between 2 samples, and “c” is rat AMPK whereas all other kinases used are human kinases.

KDR = biological target: T2, KDR (Homo sapiens, UniProt P35968); assay: Millipore radiometric kinase activity assay, KDR (h)
T2 construct: purchased Millipore (assay service)
Procedure: as §1
(§4) In a final reaction volume of 25 μL, KDR (h) (5-10 mU) is incubated with 8 mM MOPS pH 7.0, 0.2 mM EDTA, 0.33 mg/mL myelin basic protein, 10 mM MgAcetate and [γ-^33P-ATP] (specific activity approx. 500 cpm/pmol, concentration as required). The reaction is initiated by the addition of the MgATP mix. After incubation for 40 minutes at room temperature, the reaction is stopped by the addition of 5 μL of a 3% phosphoric acid solution. 10 μL of the reaction is then spotted onto a P30 filtermat and washed three times for 5 minutes in 75 mM phosphoric acid and once in methanol prior to drying and scintillation counting.
as §2, §3

Met = biological target: T3, Met (Homo sapiens, UniProt P08581); assay: Millipore radiometric kinase activity assay, Met (h)
T3 construct: purchased Millipore (radiometric assay service)
Procedure: as §1
as §4, with “Met” for “KDR”, “250 μM […] [SEQ ID NO: 56],” for “0.33 mg/mL myelin basic protein,”
as §2, §3

PDGFRβ = biological target: T4, PDGFRβ (Homo sapiens, UniProt P09619); assay: Millipore radiometric kinase activity assay, PDGFRβ (h)
T4 construct: purchased Millipore (radiometric assay service)
Procedure: as §1
as §4, with “PDGFRβ” for “KDR”, “0.1” for “0.33”, “poly(Glu, Tyr) 4:1, 10 mM MnCl2,” for “myelin basic protein,”, “Filtermat A” for “P30 filtermat”
as §2, §3

Rsk2 = biological target: T5, Rsk2 (Homo sapiens, UniProt P51812); assay: Millipore radiometric kinase activity assay, Rsk2 (h)
T5 construct: purchased Millipore (radiometric assay service)
Procedure: as §1
as §4, with “μL, Rsk2” for “μL, KDR”, “EDTA, 30 μM […] [SEQ ID NO: 64],” for “EDTA, 0.33 mg/mL myelin basic protein,”, “μL it” for “μL”, “10 μL,” for “10 μL”
as §2, §3

T1 sequence (Q06187 whole entry): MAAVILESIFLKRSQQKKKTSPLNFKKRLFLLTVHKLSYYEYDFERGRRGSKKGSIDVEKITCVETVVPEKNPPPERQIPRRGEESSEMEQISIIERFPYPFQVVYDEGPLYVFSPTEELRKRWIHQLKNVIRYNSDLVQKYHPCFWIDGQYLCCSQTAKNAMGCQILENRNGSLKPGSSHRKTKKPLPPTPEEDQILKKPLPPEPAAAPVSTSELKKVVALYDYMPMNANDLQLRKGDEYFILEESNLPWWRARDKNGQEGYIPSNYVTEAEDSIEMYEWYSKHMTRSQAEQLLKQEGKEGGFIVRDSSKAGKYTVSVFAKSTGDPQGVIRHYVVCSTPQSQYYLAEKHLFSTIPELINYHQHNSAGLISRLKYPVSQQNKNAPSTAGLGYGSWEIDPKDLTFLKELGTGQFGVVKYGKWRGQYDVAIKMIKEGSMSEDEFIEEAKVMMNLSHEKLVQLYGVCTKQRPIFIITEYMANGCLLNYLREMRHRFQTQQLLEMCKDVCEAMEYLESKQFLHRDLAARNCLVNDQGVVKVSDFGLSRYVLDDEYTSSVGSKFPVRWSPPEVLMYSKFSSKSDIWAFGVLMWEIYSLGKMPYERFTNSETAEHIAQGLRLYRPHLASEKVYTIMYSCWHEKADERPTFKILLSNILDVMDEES
T5 sequence (P51812 whole entry): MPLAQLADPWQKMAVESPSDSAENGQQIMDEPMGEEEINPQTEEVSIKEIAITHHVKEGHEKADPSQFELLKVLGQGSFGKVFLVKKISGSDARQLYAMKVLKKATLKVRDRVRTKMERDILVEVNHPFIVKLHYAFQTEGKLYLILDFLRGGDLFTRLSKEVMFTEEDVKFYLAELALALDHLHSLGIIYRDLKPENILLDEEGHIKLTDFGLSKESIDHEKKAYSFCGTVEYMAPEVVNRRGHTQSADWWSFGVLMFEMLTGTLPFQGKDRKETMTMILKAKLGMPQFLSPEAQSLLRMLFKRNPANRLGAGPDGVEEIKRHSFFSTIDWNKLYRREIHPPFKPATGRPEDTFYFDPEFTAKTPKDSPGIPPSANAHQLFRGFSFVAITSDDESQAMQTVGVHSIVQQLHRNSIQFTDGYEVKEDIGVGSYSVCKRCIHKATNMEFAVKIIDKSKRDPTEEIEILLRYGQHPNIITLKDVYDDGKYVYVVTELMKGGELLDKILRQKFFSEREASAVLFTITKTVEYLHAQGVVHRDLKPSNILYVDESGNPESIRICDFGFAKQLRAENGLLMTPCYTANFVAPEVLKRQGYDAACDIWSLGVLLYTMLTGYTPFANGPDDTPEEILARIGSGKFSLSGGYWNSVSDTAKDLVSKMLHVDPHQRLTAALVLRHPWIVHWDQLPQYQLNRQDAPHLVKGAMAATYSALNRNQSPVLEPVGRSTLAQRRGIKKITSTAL
T3 sequence (P08581 25-1390): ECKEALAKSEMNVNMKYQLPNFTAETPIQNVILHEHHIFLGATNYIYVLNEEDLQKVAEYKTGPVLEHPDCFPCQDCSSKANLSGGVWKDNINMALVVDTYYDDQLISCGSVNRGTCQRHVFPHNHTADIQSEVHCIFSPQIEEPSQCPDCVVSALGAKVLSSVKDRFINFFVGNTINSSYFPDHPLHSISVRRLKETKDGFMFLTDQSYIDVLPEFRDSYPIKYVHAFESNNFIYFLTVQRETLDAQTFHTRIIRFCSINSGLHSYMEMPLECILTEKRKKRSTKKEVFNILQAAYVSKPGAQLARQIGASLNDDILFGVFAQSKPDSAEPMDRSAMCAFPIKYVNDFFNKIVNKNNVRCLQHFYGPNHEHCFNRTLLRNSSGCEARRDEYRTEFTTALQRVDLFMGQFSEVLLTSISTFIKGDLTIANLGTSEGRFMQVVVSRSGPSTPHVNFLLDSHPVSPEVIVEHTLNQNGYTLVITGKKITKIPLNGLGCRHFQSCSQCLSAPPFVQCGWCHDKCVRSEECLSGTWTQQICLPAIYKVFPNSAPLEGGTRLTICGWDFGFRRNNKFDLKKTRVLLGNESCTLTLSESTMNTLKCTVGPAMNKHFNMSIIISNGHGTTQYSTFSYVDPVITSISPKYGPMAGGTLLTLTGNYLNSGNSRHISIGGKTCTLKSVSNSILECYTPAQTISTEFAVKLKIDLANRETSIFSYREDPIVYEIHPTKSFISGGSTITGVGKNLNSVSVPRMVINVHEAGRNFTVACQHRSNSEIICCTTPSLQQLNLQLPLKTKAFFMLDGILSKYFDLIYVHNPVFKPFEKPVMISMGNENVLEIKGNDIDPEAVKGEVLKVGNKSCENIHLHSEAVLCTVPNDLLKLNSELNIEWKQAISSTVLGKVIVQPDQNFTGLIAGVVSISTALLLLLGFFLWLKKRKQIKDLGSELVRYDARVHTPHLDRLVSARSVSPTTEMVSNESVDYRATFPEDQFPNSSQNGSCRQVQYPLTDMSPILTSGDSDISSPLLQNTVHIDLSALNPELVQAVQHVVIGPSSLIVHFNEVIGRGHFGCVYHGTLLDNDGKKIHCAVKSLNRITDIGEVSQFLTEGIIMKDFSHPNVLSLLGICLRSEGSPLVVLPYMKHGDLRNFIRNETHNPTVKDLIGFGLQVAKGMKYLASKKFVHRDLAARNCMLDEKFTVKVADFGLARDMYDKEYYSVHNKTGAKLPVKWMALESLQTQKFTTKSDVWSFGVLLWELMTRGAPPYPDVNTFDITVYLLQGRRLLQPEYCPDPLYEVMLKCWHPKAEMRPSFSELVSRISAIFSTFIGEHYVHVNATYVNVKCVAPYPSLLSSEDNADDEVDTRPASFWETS
T4 sequence (P09619 33-1106): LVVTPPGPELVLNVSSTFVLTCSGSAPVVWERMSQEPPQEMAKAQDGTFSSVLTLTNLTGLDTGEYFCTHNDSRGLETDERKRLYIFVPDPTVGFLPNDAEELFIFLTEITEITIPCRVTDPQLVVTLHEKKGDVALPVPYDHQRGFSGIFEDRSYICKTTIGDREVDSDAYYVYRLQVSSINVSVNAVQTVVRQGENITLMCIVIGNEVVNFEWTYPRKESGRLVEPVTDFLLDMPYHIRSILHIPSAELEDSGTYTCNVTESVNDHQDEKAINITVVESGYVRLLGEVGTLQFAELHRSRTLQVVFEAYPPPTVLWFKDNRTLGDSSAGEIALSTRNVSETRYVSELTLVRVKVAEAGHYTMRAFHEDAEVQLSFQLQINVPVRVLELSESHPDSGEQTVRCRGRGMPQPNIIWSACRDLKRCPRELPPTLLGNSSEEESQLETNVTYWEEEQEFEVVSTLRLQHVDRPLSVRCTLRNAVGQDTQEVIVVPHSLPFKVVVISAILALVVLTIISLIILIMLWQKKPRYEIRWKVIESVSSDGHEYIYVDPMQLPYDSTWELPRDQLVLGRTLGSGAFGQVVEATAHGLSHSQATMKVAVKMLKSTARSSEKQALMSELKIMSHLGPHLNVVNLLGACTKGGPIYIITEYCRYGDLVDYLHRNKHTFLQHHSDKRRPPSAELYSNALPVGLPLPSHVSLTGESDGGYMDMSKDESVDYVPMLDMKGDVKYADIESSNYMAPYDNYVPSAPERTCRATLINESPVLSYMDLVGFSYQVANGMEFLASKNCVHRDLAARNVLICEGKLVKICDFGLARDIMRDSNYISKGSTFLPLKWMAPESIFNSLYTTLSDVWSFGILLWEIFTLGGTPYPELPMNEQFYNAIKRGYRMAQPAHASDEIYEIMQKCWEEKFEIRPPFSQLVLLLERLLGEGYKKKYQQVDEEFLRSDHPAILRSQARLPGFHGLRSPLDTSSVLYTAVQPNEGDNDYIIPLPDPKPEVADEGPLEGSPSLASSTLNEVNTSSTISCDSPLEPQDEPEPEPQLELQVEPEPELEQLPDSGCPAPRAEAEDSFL

## KAFAKLAARLYRKALARQLGVAA
AMPK; peptide 100 μM
  AMPK Kinase Activity (%) (+SD %): 118 (7) %
BTK; peptide 100 μM
  BTK Kinase Activity (%) (+SD %): 16 (3) %
KDR; peptide 100 μM
  KDR Kinase Activity (%) (+SD %): 56 (4) %
Met; peptide 100 μM
  Met Kinase Activity (%) (+SD %): 22 (3) %
PDGFRβ; peptide 100 μM
  PDGFRβ Kinase Activity (%) (+SD %): 66 (8) %
Rsk2; peptide 100 μM
  Rsk2 Kinase Activity (%) (+SD %): 6 (1) %

## WLRRIKAWLRRIKALNRQLGVAA
AMPK; peptide 30 μM
  AMPK Kinase Activity (%) (+SD %): 36 (4) %
AMPK; peptide 100 μM
  AMPK Kinase Activity (%) (+SD %): 101 (6) %
BTK; peptide 30 μM
  BTK Kinase Activity (%) (+SD %): 5 (0) %
BTK; peptide 100 μM
  BTK Kinase Activity (%) (+SD %): 19 (1) %
KDR; peptide 30 μM
  KDR Kinase Activity (%) (+SD %): 27 (0) %
KDR; peptide 100 μM
  KDR Kinase Activity (%) (+SD %): 78 (6) %
Met; peptide 30 μM
  Met Kinase Activity (%) (+SD %): 30 (1) %
Met; peptide 100 μM
  Met Kinase Activity (%) (+SD %): 17 (3) %
PDGFRβ; peptide 30 μM
  PDGFRβ Kinase Activity (%) (+SD %): 42 (4) %
PDGFRβ; peptide 100 μM
  PDGFRβ Kinase Activity (%) (+SD %): 92 (4) %
Rsk2; peptide 30 μM
  Rsk2 Kinase Activity (%) (+SD %): 14 (5) %
Rsk2; peptide 100 μM
  Rsk2 Kinase Activity (%) (+SD %): −1 (1) %

Reference: patent publication US9327008B2, “Cell-permeant peptide-based inhibitor of kinases” (Purdue Research Foundation, priority 2008, dated 2016)
